According to FireProtDB (doi:10.1021/bi034132r):
“And” between values parts separate entries of the source, which are not always exact repeats. Identical values can stand only once.

Conditions: Saccharomyces cerevisiae (strain ATCC 204508 / S288c), pH 7, 25 °C, GdnHCl, CD, phosphate 0.1 M, reversible: yes

Cytochrome c isoform 1 H32Y, P00044, sequence (P00044 whole entry H32Y, canonical isoform): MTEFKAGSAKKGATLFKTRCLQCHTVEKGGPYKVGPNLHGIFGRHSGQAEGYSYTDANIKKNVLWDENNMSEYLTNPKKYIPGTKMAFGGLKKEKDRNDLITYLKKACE
Cytochrome c isoform 1 H39Y, P00044, sequence (P00044 whole entry H39Y, canonical isoform): as the sequence (P00044 whole entry H32Y, canonical isoform) above, with Y32H, H39Y counted along it
Cytochrome c isoform 1 wild type, P00044, sequence (P00044 whole entry, canonical isoform): as the sequence (P00044 whole entry H32Y, canonical isoform) above, with Y32H counted along it

With Cytochrome c isoform 1 H32Y, P00044 the “ddG of mutation (higher = less stable)” value (structure 1YCC) was 1.82 kcal/mol and 2.1 kcal/mol, the denaturant m value (structure 1YCC) was 2.41 kcal/mol/M and 2.39 kcal/mol/M and the “denaturant midpoint (higher = more stable)” value (“denaturant midpoint” for short) (structure 1YCC) was 1.4 M and 1.1 M. For the same substance, the unfolding free energy (structure 1YCC) was 3.54 kcal/mol and 3.2 kcal/mol.
For Cytochrome c isoform 1 H39Y, P00044, the “ddG of mutation (higher = less stable)” value (structure 1YCC) was 0.6 kcal/mol, the denaturant m value (structure 1YCC) was 2.87 kcal/mol/M and the “denaturant midpoint” value (structure 1YCC) was 1.6 M. It also gave an unfolding free energy (structure 1YCC) of 4.71 kcal/mol.
In the case of “Cytochrome c isoform 1 wild type, P00044”, the denaturant m value was 2.96 kcal/mol/M and 2.94 kcal/mol/M, the “denaturant midpoint” value was 1.8 M and the unfolding free energy was 5.35 kcal/mol and 5.31 kcal/mol.
